This data set is described as follows: self-splicing fitness, log relative to wild type (ln ratio); higher = more splicing; Tetrahymena group I intron in knt gene, E. coli kanamycin selection, DiMSum; sequences stand for … in CUCUCU…GGAGGGAAAAGUUAUCAGGCAUGCACCUGGUAGCUAGUCUUUAAACCAAUAGAUUGCAUCGGUUUAAAAGGCAAGACCGUCAAAUUGCGGGAAAGGGGUCAACAGCCGUUCAGUACCAAGUCUCAGGGGAAACUUUGAGAUGGCCUUGCAAAGGGUAUGGUAAUAAGCUGACGGACAUGGUCCUAACCACGCAGCCAAGUCCUAAGUCAACAGAUCUUCUGUUGAUAUGGAUGCAGUUCACAGACUAAAUGUCGGUCGGGGAAGAUGUAUUCUUCUCAUAAGAUAUAGUCGGACCUCUCCUUAAUGGGAGCUAGCGGAUGAAGUGAUGCAACACUGGAGCCGCUGGGAACUAAUUUGUAUGCGAAAGUAUAUUGAUUAGUUUUGGAGUACUCGUGGUCG
The essentials:
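The eight P1ex-region nucleotides of an intron in the knt kanamycin-resistance gene on pET-22b(+) were all randomised and the library put into E. coli BL21(DE3). Six replicate transformations were grown overnight at 37°C or 30°C on LB agar with or without 25 μg/mL kanamycin, together with 100 μg/mL carbenicillin, 50 μM IPTG and 0.2% rhamnose. Colonies were pooled and amplicon-sequenced on an Illumina HiSeq 2500. Fitness from DiMSum is the error-weighted combination of wild-type-normalised replicate fold changes, kanamycin over none.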

± gives the uncertainty stated by the source.

As to GCUUAGCAAUAUUACGUUUU, the “self-splicing fitness (ln)” value (30 °C) was -1.68 ± 0.068 and the “self-splicing fitness (ln)” value (37 °C) was -0.474 ± 0.075.

In the case of AUAUAGCAAUAUUACGCACU, the “self-splicing fitness (ln)” value (30 °C) is -0.015 ± 0.13 and the “self-splicing fitness (ln)” value (37 °C) was -0.204 ± 0.16.

For the sequence AGAUAGCAAUAUUACGAGGU, the “self-splicing fitness (ln)” value (30 °C) was -2.94 ± 0.24 and the “self-splicing fitness (ln)” value (37 °C) was -2.17 ± 0.24.

CAUUAGCAAUAUUACGCUAA: under “30 °C”, the “self-splicing fitness (ln)” value was -2.7 ± 0.32.

UUUUAGCAAUAUUACGGGAC: the “self-splicing fitness (ln)” value runs as follows: (30 °C) -2.5 ± 0.26; (37 °C) -1.83 ± 0.47.

Take GGCUAGCAAUAUUACGCCGC: for the setting “30 °C”, the “self-splicing fitness (ln)” value is -3.44 ± 0.41.

For the sequence GCACAGCAAUAUUACGGUAA, the “self-splicing fitness (ln)” value by setting is: (30 °C) -1.06 ± 0.075; (37 °C) -0.547 ± 0.079.

Turning to UUUAAGCAAUAUUACGCAGU, the “self-splicing fitness (ln)” value reads like this: (30 °C) -2.7 ± 0.22; (37 °C) -2.36 ± 0.27.

With CGUAAGCAAUAUUACGGAUA, the “self-splicing fitness (ln)” value (37 °C) was -2.1 ± 0.38.

In the case of CCAAAGCAAUAUUACGCUAU, the “self-splicing fitness (ln)” value (30 °C) is -3.7 ± 0.19 and the “self-splicing fitness (ln)” value (37 °C) was -2.39 ± 0.23.

In the case of CUGAAGCAAUAUUACGGCCU, the “self-splicing fitness (ln)” value is, setting by setting: (30 °C) -4.04 ± 0.26; (37 °C) -2.43 ± 0.33.

On to UAGGAGCAAUAUUACGAUGG, for which the “self-splicing fitness (ln)” value was -3.36 ± 0.28 (30 °C) and -1.4 ± 0.24 (37 °C).

AAUCAGCAAUAUUACGGGUC: the “self-splicing fitness (ln)” value is -2.03 ± 0.086 (30 °C) and -1.76 ± 0.11 (37 °C).

Consider AGGCAGCAAUAUUACGGUCA, for which the “self-splicing fitness (ln)” value is, setting by setting: (30 °C) -0.0713 ± 0.069; (37 °C) -0.148 ± 0.079.

Turning to UUGAAGCAAUAUUACGGAUC, the “self-splicing fitness (ln)” value by setting is: (30 °C) -0.951 ± 0.15; (37 °C) -0.501 ± 0.18.

On to UUACAGCAAUAUUACGUCGC, for which the “self-splicing fitness (ln)” value is, setting by setting: (30 °C) -2.92 ± 0.17; (37 °C) -2.55 ± 0.18.

Turning to UAUUAGCAAUAUUACGCCGU, the “self-splicing fitness (ln)” value (37 °C) was -1.63 ± 0.33.

On to UCUCAGCAAUAUUACGUAUU, for which the “self-splicing fitness (ln)” value (30 °C) is -3.14 ± 0.2 and the “self-splicing fitness (ln)” value (37 °C) is -2 ± 0.16.

For CGACAGCAAUAUUACGGUAU, the “self-splicing fitness (ln)” value by setting is: (30 °C) -3.62 ± 0.2; (37 °C) -2.45 ± 0.23.

In the case of ACUAAGCAAUAUUACGCUCA, the “self-splicing fitness (ln)” value runs as follows: (30 °C) -0.894 ± 0.12; (37 °C) -0.989 ± 0.14.

As to GGGCAGCAAUAUUACGAUCA, the “self-splicing fitness (ln)” value is -1.56 ± 0.13 (30 °C) and -0.598 ± 0.15 (37 °C).

Regarding CUCAAGCAAUAUUACGCGCG, the “self-splicing fitness (ln)” value reads like this: (30 °C) -3.19 ± 0.18; (37 °C) -2.41 ± 0.29.

In the case of AUAGAGCAAUAUUACGAUGU, the “self-splicing fitness (ln)” value by setting is: (30 °C) -0.266 ± 0.067; (37 °C) 0.423 ± 0.095.

For CGCAAGCAAUAUUACGCCAA, the “self-splicing fitness (ln)” value is -2.12 ± 0.27 (30 °C) and -3.03 ± 0.35 (37 °C).

For UACGAGCAAUAUUACGGCCG, the “self-splicing fitness (ln)” value runs as follows: (30 °C) -0.704 ± 0.13; (37 °C) -1.01 ± 0.21.

Regarding GUCAAGCAAUAUUACGUCAU, the “self-splicing fitness (ln)” value runs as follows: (30 °C) -2.22 ± 0.075; (37 °C) -1.16 ± 0.064.

Regarding GCUAAGCAAUAUUACGACGC, the “self-splicing fitness (ln)” value by setting is: (30 °C) -1.52 ± 0.16; (37 °C) -0.603 ± 0.18.

With UGUCAGCAAUAUUACGCAGU, the “self-splicing fitness (ln)” value by setting is: (30 °C) -1.27 ± 0.18; (37 °C) -0.898 ± 0.27.

In the case of GAAUAGCAAUAUUACGGUGG, the “self-splicing fitness (ln)” value by setting is: (30 °C) -3.06 ± 0.24; (37 °C) -1.08 ± 0.12.

In the case of ACCGAGCAAUAUUACGCUCU, the “self-splicing fitness (ln)” value (30 °C) is -0.43 ± 0.14 and the “self-splicing fitness (ln)” value (37 °C) is -1.25 ± 0.16.

For CUGUAGCAAUAUUACGUGGA, the “self-splicing fitness (ln)” value runs as follows: (30 °C) -3.85 ± 0.28; (37 °C) -4.32 ± 0.42.

UGUGAGCAAUAUUACGGCCU: the “self-splicing fitness (ln)” value by setting is: (30 °C) -1.89 ± 0.27; (37 °C) -1.18 ± 0.32.

For CCUAAGCAAUAUUACGAAUA, under “30 °C”, the “self-splicing fitness (ln)” value was -3.51 ± 0.35.

Turning to GUGCAGCAAUAUUACGUGGA, the “self-splicing fitness (ln)” value reads like this: (30 °C) -3.24 ± 0.28; (37 °C) -2.24 ± 0.19.

For the sequence AGGGAGCAAUAUUACGACAG, the “self-splicing fitness (ln)” value by setting is: (30 °C) -2.9 ± 0.13; (37 °C) -2.62 ± 0.22.

Take CGUGAGCAAUAUUACGUGAU: the “self-splicing fitness (ln)” value by setting is: (30 °C) -3.8 ± 0.24; (37 °C) -3.21 ± 0.23.

For AUCGAGCAAUAUUACGGAUG, under “37 °C”, the “self-splicing fitness (ln)” value came to 0.184 ± 0.17.

Take CGUUAGCAAUAUUACGCCAG: the “self-splicing fitness (ln)” value (30 °C) was -0.657 ± 0.22 and the “self-splicing fitness (ln)” value (37 °C) came out at 0.474 ± 0.35.

With GAGUAGCAAUAUUACGUCCA, the “self-splicing fitness (ln)” value reads like this: (30 °C) -1.32 ± 0.14; (37 °C) -0.346 ± 0.16.

Consider CACCAGCAAUAUUACGAACC, for which the “self-splicing fitness (ln)” value (30 °C) was -3.66 ± 0.28 and the “self-splicing fitness (ln)” value (37 °C) was -0.707 ± 0.25.
